Laboratory results from article PMC4933246, “Alanine Expansions Associated with Congenital Central Hypoventilation Syndrome Impair PHOX2B Homeodomain-mediated Dimerization and Nuclear Import*” (The Journal of Biological Chemistry, 2016).

Target: the molecule itself
Experiment: two-hybrid; mammalian two-hybrid (CheckMate, Promega) in HeLa cells; GAL4 BD fusion (pBIND) and VP16 AD fusion (pACT), 80 fmol each, with 160 fmol pG5LUC; Dual-Luciferase assay

B1: PHOX2A fused to GAL4 BD or VP16 AD (natural protein)
chain: not shown
notes: PHOX2A, human; Each copy carries either GAL4 BD or VP16 AD; also called GAL4 BD-PHOX2A; VP16 AD-PHOX2A; source: mammalian two-hybrid fusion, transfected HeLa cells
In the case of B1, the “luciferase activity relative to that of the PHOX2B fusion constructs” value is reported as > 2 fold.
